Experimental data reported in PMC6032241, “UDP-Glucose 4-Epimerase and β-1,4-Galactosyltransferase from the Oyster Magallana gigas as Valuable Biocatalysts for the Production of Galactosylated Products” (International Journal of Molecular Sciences, 2018).

B1: MgUGE (Magallana gigas) (protein)
chain: MGDSCILVTGGAGFVGSHSVIELIEAGYSVVVMDNLANASMESIKRVEEITGKSIPSYSVDLLDKPALSDLFNKHKFTSVIHFAGLKAVGESCQLPLLYYKNNVGGTVNLLEVMKEKGVKNLIFSSSATVYGSPQYLPIDEKHPVGGCTNPYGKTKYFIEEILRDLHKAEPDWNIIMLRYFNPVGAHKSGKIGEDPQGIPNNLMPFIAQVAVGKRAELSVYGSDYDTPDGTGVRDYIHVVDLAQGHVAAQKKIEKKCGCKVYNLGTGKGYSVIEMAKAFEEASGKPIPFKKVDRRAGDVASVYGNADLAKEELGWSASRDLKQMCEDTWRWQSSNPNGFRK
notes: forward primer encodes N-terminus MGDSCIL

Key:
MgGalT7 = target: T1, MgGalT7 (Magallana gigas, UniProt Z9LX56G651); test: coupled galactosylation with MgUGE, HPLC-ESI-MS; assay type: biochemical; conditions: acceptor 10 mM; 15 mM UDP-glucose converted to UDP-galactose by MgUGE, 1 mM MnCl2, 50 mM Tris-HCl pH 8.0, 37 °C, 24 h
T1 sequence (Z9LX56G651 34-312): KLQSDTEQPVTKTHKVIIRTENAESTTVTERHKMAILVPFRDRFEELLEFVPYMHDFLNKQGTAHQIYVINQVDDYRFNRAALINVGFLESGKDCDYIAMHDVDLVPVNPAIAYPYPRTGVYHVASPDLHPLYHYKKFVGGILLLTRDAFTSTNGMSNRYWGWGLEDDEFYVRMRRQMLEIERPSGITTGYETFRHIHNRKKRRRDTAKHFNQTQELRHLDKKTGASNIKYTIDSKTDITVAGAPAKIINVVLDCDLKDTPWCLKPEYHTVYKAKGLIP

purified protein = substrate: O=c1ccn([C@@H]2O[C@H](COP(=O)(O)OP(=O)(O)O[C@H]3O[C@H](CO)[C@H](O)[C@H](O)[C@H]3O)[C@@H](O)[C@H]2O)c(=O)[nH]1; test: purified protein; assay type: biochemical, Magallana gigas; conditions: 50 mM Tris-HCl pH 8.0, 22 °C, UDP-galactose 10 µM to 2 mM

Molecule	coupled galactosylation with MgUGE, HPLC-ESI-MS (MgGalT7)	Km (purified protein)	kcat (purified protein)
O=[N+]([O-])c1ccc(O[C@H]2OC[C@@H](O)[C@H](O)[C@H]2O)cc1 [pNP-xylose]	(MgGalT7), allowing the galactosylation of the model substrate para-nitrophenol xylose (pNP-xylose)	–	–
B1	–	1600 ± 100 µM	2.23 ± 0.2 s⁻¹
